Test results taken from US6958236B2, “Control of gene expression in plants” (priority 2000, dated 2005).

System: pCGS206 (luciferase reporter with response elements for the GAL4 DNA binding domain)
Experiment: Maize BMS cells bombarded with GAL4 luciferase reporter and receptor vector, GUS-normalized luciferase
Format: cell-based
Settings: for Experiment #1 Luciferase / Experiment #2 Luciferase / Experiment #1 Fold Induction / Experiment #2 Fold Induction: Example 26; for Experiment #1 Fold Induction / Experiment #2 Fold Induction: + 10 μM Teb vs without; for Fold Induction with Teb Relative to Receptor with EtOH / Fold Induction with Teb Relative to Reporter with EtOH: 20 μM Teb; for Normalized Average (EtOH): unliganded background; for Experiment #1 RLU / Experiment #2 RLU: Example 28, GUS-normalized
Procedure: Maize BMS (Black Mexican Sweet) cultured cells are transfected with pCGS206 and pCGS208 by high velocity microprojectile bombardment. In addition, an expression plasmid containing the maize ubiquitin promoter driving the expression of β-glucuronidase (GUS) is added to the transfection to serve as an internal control to normalize against variations among the samples.
Transfections are treated and cell lysates are made essentially as described in U.S. Pat. No. 5,880,333. […] Both luciferase and GUS assays are performed with 20 μl of cell lysate for each assay using the Promega Luciferase Kit (Promega cat #E1500) and GUS-Light Kit (Tropix) respectively. Relative light units are determined using a Turner Designs TD 20/20 luminometer.
In addition to tebufenozide, methoxytebufenozide (“MethoxyTeb”) is also capable of inducing gene expression in maize BMS cells. Both pCGS206 and pCGS208 are transfected as described above and methoxytebufenozide is added in place of tebufenozide at 25 μM and 10 μM.
Maize BMS cells are transfected and assayed as in Example 12.
Transformation of maize suspension cells, chemical treatment, and reporter activity assays are performed as described in Example 12. Maize BMS (Black Mexican Sweet) cultured cells are transfected with pCGS206 (pBS-bz1TATA/intronLUC), pCGS203 (G(M)MV), pCGS672 (G(M)MC), and pCGS678 (G(M)MD) by high velocity microprojectile bombardment. In addition, an expression plasmid containing the maize ubiquitin promoter driving the expression of β-glucuronidase (GUS) is added to the transfection to serve as an internal control to normalize against variations among the samples.
Maize BMS cells are bombarded with reporter vector pCGS206 and chimeric receptors and treated with tebufenozide essentially as described in Example 12. Transfections are treated and cell lysates are made essentially as described in U.S. Pat. No. 5,880,333. […] Both luciferase and GUS assays are performed with 20 μl of cell lysate for each assay using the Promega Luciferase Kit (Promega cat #E1500) and GUS-Light Kit (Tropix) respectively. Relative light units (RLU) are determined using a Turner Designs TD 20/20 luminometer.

[1] = BMS cells, reporter pCGS206, no ligand

Molecule	Experiment #1 Luciferase (+ 10 μM Teb)	Experiment #2 Luciferase (+ 10 μM Teb)	Experiment #1 Fold Induction [fold]	Experiment #2 Fold Induction [fold]	Experiment #1 Luciferase [1]	Experiment #2 Luciferase [1]	Experiment #1 RLU [1] [RLU]	Experiment #2 RLU [1] [RLU]	further results
G(M)MD: EcR chimera: GAL4 DBD, Manduca sexta D and E domains, maize Dof1 activation domain; SEQ ID NO:136-137 (protein) MQQLYVDFFSPAFIRYLFAWYCFFCRCSPCCLVLLLQGSATMKLLSSIEQACDICRLKKLKCSKEKPKCAKCLKNNWECRYSPKTKRSPLTRAHLTEVESRLERLEQLFLLIFPREDLDMILKMDSLQDIKALLTGLFVQDNVNKDAVTDRLASVETDMPLTLRQHRISATSSSEESSNKGQRQLTVSTRMRPECVVPESTCKNKRREKEAQREKDKLPVSTTTVDDHMPAIMQCDPPPPEAARIHEVVPRFLTEKLMEQNRLKNVTPLSANQKSLIARLVWYQEGYEQPSEEDLKRVTQTWQLEEEEEEETDMPFRQITEMTILTVQLIVEFAKGLPGFSKISQSDQITLLKASSSEVMMLRVARRYDAATDSVLFANNQAYTRDNYRKAGMSYVIEDLLHFCRCMYSMSMDNVHYALLTAIVIFSDRPGLEQPLLVEEIQRYYLKTLRVYILNQHSASPRCAVLFGKILGVLTELRTLGTQNSNMCISLKLKNRKLPPFLEEIWDVAEVSTTKLELATAADPGKTATTTTTTTSEITTETGALEDSDSLAHLLLQPGTEDAEAVALGLGLSDFPSAGKAVLDDEDSFVWPAASFDMGACWAGAGFADPDPACIFLNLP	6.37	9.14	3.0	7.8	2.14	1.18	–	–	–
G(E)MV: EcR chimera: GAL4 DBD, European corn borer D domain, Manduca sexta E domain, VP16; SEQ ID NO:126-127 (protein) MQQLYVDFFSPAFIRYLFAWYCFFCRCSPCCLVLLLQGSATMKLLSSIEQACDICRLKKLKCSKEKPKCAKCLKNNWECRYSPKTKRSPLTRAHLTEVESRLERLEQLFLLIFPREDLDMILKMDSLQDIKALLTGLFVQDNVNKDAVTDRLASVETDMPLTLRQHRISATSSSEESSNKGQRQLTVSTRMRPECVVPETQCAQKRKEKKAQREKDKLPVSTTTVDDHMPPIMQCDPPPPEAARILECLQHEVVPRFLSEKLMEQNRLKNIPPLTANQQFLIARLVWYQEGYEQPSEEDLKRVTQTWQLEEEEEEETDMPFRQITEMTILTVQLIVEFAKGLPGFSKISQSDQITLLKASSSEVMMLRVARRYDAATDSVLFANNQAYTRDNYRKAGMSYVIEDLLHFCRCMYSMSMDNVHYALLTAIVIFSDRPGLEQPLLVEEIQRYYLKTLRVYILNQHSASPRCAVLFGKILGVLTELRTLGTQNSNMCISLKLKNRKLPPFLEEIWDVAEVSTTKLAPPTDVSLGDELHLDGEDVAMAHADALDDFDLDMLGDGDSPGPGFTPHDSAPYGALDMADFEFEQMFTDALGIDEYGG	–	–	–	–	–	–	–	–	Fold Induction with Teb Relative to Receptor with EtOH (Example 24, Experiment 1): 34 fold; Fold Induction with Teb Relative to Reporter with EtOH (Example 24, Experiment 1): 135 fold; Normalized Average (EtOH) (Example 24, Experiment 1, BMS cells): 14.499; Fold Induction with Teb Relative to Receptor with EtOH (Example 24, Experiment 2): 16 fold; Fold Induction with Teb Relative to Reporter with EtOH (Example 24, Experiment 2): 95 fold; Normalized Average (EtOH) (Example 24, Experiment 2, BMS cells): 2.537
GV(M)M: EcR chimera: GAL4 DBD, internal VP16, Manduca D and E domains; SEQ ID NO:147-148 (protein) MQQLYVDFFSPAFIRYLFAWYCFFCRCSPCCLVLLLQGSATMKLLSSIEQACDICRLKKLKCSKEKPKCAKCLKNNWECRYSPKTKRSPLTRAHLTEVESRLERLEQLFLLIFPREDLDMILKMDSLQDIKALLTGLFVQDNVNKDAVTDRLASVETDMPLTLRQHRISATSSSEESSNKGQRQLTVSTRMRPECVVPESTCKLAPPTDVSLGDELHLDGEDVAMAHADALDDFDLDMLGDGDSPGPGFTPHDSAPYGALDMADFEFEQMFTDALGIDEYGGNTCKNKRREKEAQREKDKLPVSTTTVDDHMPAIMQCDPPPPEAARIHEVVPRFLTEKLMEQNRLKNVTPLSANQKSLIARLVWYQEGYEQPSEEDLKRVTQTWQLEEEEEEETDMPFRQITEMTILTVQLIVEFAKGLPGFSKISQSDQITLLKASSSEVMMLRVARRYDAATDSVLFANNQAYTRDNYRKAGMSYVIEDLLHFCRCMYSMSMDNVHYALLTAIVIFSDRPGLEQPLLVEEIQRYYLKTLRVYILNQHSASPRCAVLFGKILGVLTELRTLGTQNSNMCISLKLKNRKLPPFLEEIWDVAEVSTTKL	–	–	–	–	–	–	1.71	1.77	–
G(M)MC: EcR chimera: GAL4 DBD, Manduca sexta D and E domains, maize C1 activation domain; SEQ ID NO:134-135 (protein) MQQLYVDFFSPAFIRYLFAWYCFFCRCSPCCLVLLLQGSATMKLLSSIEQACDICRLKKLKCSKEKPKCAKCLKNNWECRYSPKTKRSPLTRAHLTEVESRLERLEQLFLLIFPREDLDMILKMDSLQDIKALLTGLFVQDNVNKDAVTDRLASVETDMPLTLRQHRISATSSSEESSNKGQRQLTVSTRMRPECVVPESTCKNKRREKEAQREKDKLPVSTTTVDDHMPAIMQCDPPPPEAARIHEVVPRFLTEKLMEQNRLKNVTPLSANQKSLIARLVWYQEGYEQPSEEDLKRVTQTWQLEEEEEEETDMPFRQITEMTILTVQLIVEFAKGLPGFSKISQSDQITLLKASSSEVMMLRVARRYDAATDSVLFANNQAYTRDNYRKAGMSYVIEDLLHFCRCMYSMSMDNVHYALLTAIVIFSDRPGLEQPLLVEEIQRYYLKTLRVYILNQHSASPRCAVLFGKILGVLTELRTLGTQNSNMCISLKLKNRKLPPFLEEIWDVAEVSTTKLPKAVRCTGGLFFFHRDTTPAHAGETATPMAGGGGGGGGEAGSSDDCSSAASVSLRVGSHDEPCFSGDGDGDWMDDVRALASFLESDEDWLRCQTAGQLA	53.20	28.05	26.0	17.8	2.05	1.58	–	–	–
VG(M)M: EcR chimera: N-terminal VP16, GAL4 DBD, Manduca D and E domains; SEQ ID NO:142-143 (protein) MQQLYVDFFSPAFIRYLFAWYCFFCRCSPCCLVLLLQGSATMHVKLAPPTDVSLGDELHLDGEDVAMAHADALDDFDLDMLGDGDSPGPGFTPHDSAPYGALDMADFEFEQMFTDALGIDEYGGHVTSKLLSSIEQACDICRLKKLKCSKEKPKCAKCLKNNWECRYSPKTKRSPLTRAHLTEVESRLERLEQLFLLIFPREDLDMILKMDSLQDIKALLTGLFVQDNVNKDAVTDRLASVETDMPLTLRQHRISATSSSEESSNKGQRQLTVSTRMRPECVVPESTCKNKRREKEAQREKDKLPVSTTTVDDHMPAIMQCDPPPPEAARIHEVVPRFLTEKLMEQNRLKNVTPLSANQKSLIARLVWYQEGYEQPSEEDLKRVTQTWQLEEEEEEETDMPFRQITEMTILTVQLIVEFAKGLPGFSKISQSDQITLLKASSSEVMMLRVARRYDAATDSVLFANNQAYTRDNYRKAGMSYVIEDLLHFCRCMYSMSMDNVHYALLTAIVIFSDRPGLEQPLLVEEIQRYYLKTLRVYILNQHSASPRCAVLFGKILGVLTELRTLGTQNSNMCISLKLKNRKLPPFLEEIWDVAEVSTTKL	–	–	–	–	–	–	2.21	2.52	–
